Measurements from article PMC7959386 (2021).

Key:
[1] = biological target: T1, SARS-CoV-2 Spike receptor-binding domain (residues 330-541) (SARS-CoV-2, UniProt P0DTC2 330-541); experiment: BLI
[2] = biological target: T1, SARS-CoV-2 Spike receptor-binding …; experiment: BLI; remark: listed apart in the source

B1: MR17 (synthetic nanobody, sybody) (VHH)
VHH: QVQLVESGGGLVQAGGSLRLSCAASGFPVEVWRMEWYRQAPGKEREGVAAIESYGHGTRYADSVKGRFTISRDNAKNTVYLQMNSLKPEDTAVYYCNVKDDGQLAYHYDYWGQGTQVTVSA
[1]
  Kd: 83.7 nM
[2]
  koff: 0.0097 s⁻¹

B2: MR6 (synthetic nanobody, sybody) (VHH)
VHH: QVQLVESGGGLVQAGGSLRLSCAASGFPVEDTWMEWYRQAPGKEREWVAAITSWGFKTYYADSVKGRFTISRDNAKNTVYLQMNSLKPEDTAVYYCNVKDEGDTSASYDYWGQGTQVTVSS
[2]
  koff: 0.0072 s⁻¹
